# Assay results reported in the Human Domainome abundance scans (Beltran et al. 2025).
# ± gives the uncertainty stated by the source.
# B1: POU domain, class 3, transcription factor 3, residues 320 to 388; numbered along this chain, P20264 (parent)
# chain: DDLEQFAKQFKQRRIKLGFTQADVGLALGTLYGNVFSQTTICRFEALQLSFKNMCKLKPLLNKWLEEAD
# Variants of: B1
# Assay: abundance fitness (aPCA) (normalised: wild type 0, dead -1); higher = more abundant; growth selection in yeast, the domain comes from the species named
# Conditions: Homo sapiens
row,Variant,abundance fitness
1,F51Y,-0.247 ± 0.18
2,F51V,0.013 ± 0.063
3,F51C,-0.416 ± 0.13
4,F51I,-0.51 ± 0.26
5,L57P,0.029 ± 0.14
6,L57M,-0.279 ± 0.15
7,L57V,-0.535 ± 0.082
8,L57K,-0.645 ± 0.36
9,L57E,-1.16 ± 0.42
10,L57T,-0.698 ± 0.35
11,L57A,-0.602 ± 0.17
12,L57H,-0.333 ± 0.2
13,L57S,-0.572 ± 0.16
14,L57R,-0.715 ± 0.091
15,L57G,-0.78 ± 0.2
16,L57W,-0.401 ± 0.12
17,K56M,-0.173 ± 0.11
18,K56H,-0.61 ± 0.42
19,K56E,-0.066 ± 0.1
20,K56C,-0.391 ± 0.16
21,K56D,-0.163 ± 0.14
22,K56L,-0.079 ± 0.064
23,K56N,-0.44 ± 0.24
24,K56G,-0.539 ± 0.093

row,Variant,abundance fitness
1,K56Y,-0.753 ± 0.45
2,K56P,-0.848 ± 0.28
3,K56F,-0.11 ± 0.19
4,K56W,-0.548 ± 0.12
5,K56I,-0.063 ± 0.2
6,K56R,0.017 ± 0.053
7,K56S,-0.181 ± 0.08
8,V35T,0.304 ± 0.11
9,V35Y,-0.108 ± 0.09
10,V35S,-0.125 ± 0.085
11,C55Q,0.209 ± 0.1
12,C55N,-0.102 ± 0.24
13,C55T,-0.186 ± 0.095
14,C55P,-0.874 ± 0.32
15,C55K,-0.009 ± 0.13
16,C55H,-0.199 ± 0.27
17,C55Y,-0.269 ± 0.3
18,C55F,0.253 ± 0.19
19,C55M,-0.032 ± 0.1
20,C55V,0.019 ± 0.077
21,C55G,-0.354 ± 0.048
22,C55L,-0.156 ± 0.081
23,C55E,-0.255 ± 0.18
24,C55W,-0.177 ± 0.092

row,Variant,abundance fitness
1,C55I,-0.046 ± 0.24
2,C55S,-0.102 ± 0.1
3,S50C,-0.786 ± 0.26
4,S50A,-0.751 ± 0.25
5,S50F,-0.711 ± 0.32
6,S50V,-1.04 ± 0.3
7,S50D,-0.074 ± 0.14
8,S50L,-0.833 ± 0.21
9,S50K,-0.302 ± 0.16
10,S50E,-0.18 ± 0.16
11,S50Q,0.161 ± 0.13
12,S50G,-0.561 ± 0.12
13,S50P,0.034 ± 0.079
14,S50N,-0.922 ± 0.44
15,E45A,-0.511 ± 0.21
16,E45V,-0.946 ± 0.39
17,E45T,-0.729 ± 0.2
18,E45P,-0.803 ± 0.33
19,E45W,-0.787 ± 0.18
20,E45R,-0.891 ± 0.18
21,E45Q,0.081 ± 0.18
22,E45K,-0.649 ± 0.17
23,E45M,-0.82 ± 0.36
24,E45G,-0.982 ± 0.23

row,Variant,abundance fitness
1,E45L,-0.628 ± 0.22
2,E45S,-0.628 ± 0.23
3,E45F,-0.58 ± 0.48
4,N53E,0.049 ± 0.1
5,N53H,-0.09 ± 0.14
6,N53V,-0.306 ± 0.093
7,N53I,-0.167 ± 0.18
8,N53G,-0.148 ± 0.04
9,N53F,-0.513 ± 0.23
10,N53C,-0.255 ± 0.15
11,N53Y,-0.357 ± 0.17
12,N53W,-0.102 ± 0.046
13,N53A,-0.035 ± 0.04
14,N53D,0.012 ± 0.16
15,N53L,-0.148 ± 0.059
16,N53T,0.051 ± 0.083
17,N53P,-0.613 ± 0.12
18,N53Q,-0.044 ± 0.074
19,N53M,0.114 ± 0.069
20,N53R,-0.037 ± 0.052
21,N53S,-0.257 ± 0.069
22,F44K,-0.696 ± 0.24
23,F44W,-0.568 ± 0.15
24,F44G,-0.772 ± 0.14

row,Variant,abundance fitness
1,F44M,-0.725 ± 0.18
2,F44A,-1.04 ± 0.43
3,F44V,-0.678 ± 0.2
4,F44R,-0.946 ± 0.19
5,F44P,-1.02 ± 0.42
6,F44L,-0.859 ± 0.18
7,Q48W,-0.453 ± 0.22
8,Q48K,-0.177 ± 0.2
9,Q48E,-0.088 ± 0.18
10,Q48L,-0.375 ± 0.21
11,Q48G,-0.264 ± 0.19
12,Q48S,-0.205 ± 0.098
13,Q48R,-0.416 ± 0.13
14,Q48A,-0.612 ± 0.24
15,Q48T,-0.187 ± 0.24
16,Q48I,-0.835 ± 0.36
17,Q48M,-0.599 ± 0.19
18,S37D,-0.157 ± 0.4
19,S37H,-0.076 ± 0.11
20,S37C,-0.629 ± 0.26
21,S37F,-0.841 ± 0.28
22,S37G,-0.44 ± 0.12
23,S37N,-0.338 ± 0.3
24,S37L,-0.629 ± 0.11

row,Variant,abundance fitness
1,S37T,-0.337 ± 0.14
2,S37A,-0.246 ± 0.13
3,S37K,-0.532 ± 0.18
4,S37V,-0.7 ± 0.19
5,S37Y,-0.725 ± 0.3
6,S37E,-0.32 ± 0.13
7,S37Q,-0.386 ± 0.26
8,S37R,-0.55 ± 0.12
9,L47S,-0.29 ± 0.12
10,L47K,-0.111 ± 0.2
11,L47D,-0.661 ± 0.24
12,L47F,-0.293 ± 0.21
13,L47T,-0.602 ± 0.17
14,L47N,0.599 ± 0.44
15,L47A,-0.342 ± 0.15
16,L47H,0.083 ± 0.17
17,L47E,-0.662 ± 0.29
18,L47Y,-0.131 ± 0.2
19,L47C,0.021 ± 0.38
20,L47G,-0.038 ± 0.067
21,L47R,0.039 ± 0.067
22,L47M,0.113 ± 0.21
23,L47V,-0.039 ± 0.065
24,N62A,0.001 ± 0.084

row,Variant,abundance fitness
1,N62D,0.024 ± 0.24
2,N62G,0.052 ± 0.067
3,K58T,-0.892 ± 0.17
4,K58A,-0.337 ± 0.094
5,K58S,-0.796 ± 0.33
6,K58I,-0.416 ± 0.34
7,K58L,-0.875 ± 0.22
8,K58C,0.152 ± 0.27
9,K58R,0.031 ± 0.087
10,K58V,-0.398 ± 0.24
11,K58G,-0.852 ± 0.22
12,P59V,-0.377 ± 0.13
13,P59G,-0.166 ± 0.17
14,P59L,-0.378 ± 0.2
15,P59T,-0.459 ± 0.2
16,P59Q,-0.333 ± 0.12
17,P59M,-0.279 ± 0.15
18,P59R,-0.389 ± 0.084
19,P59C,-0.064 ± 0.12
20,P59E,-0.353 ± 0.3
21,P59K,-0.247 ± 0.21
22,P59W,-0.986 ± 0.35
23,P59S,-0.398 ± 0.16
